This note sets out measurements from patent US20170129954A1 (PROTHENA BIOSCIENCES, published 2017).

The target of assay [1] is T1, human MCAM domain 2 (amino acids 139-242) hFc (human, UniProt P43121 139-242).
T1 construct: One of the various MCAMhFc domains captured on anti-human IgG Fc biosensors; also called MCAMhFc domain; not shown: human IgG Fc (hFc)
T1 sequence: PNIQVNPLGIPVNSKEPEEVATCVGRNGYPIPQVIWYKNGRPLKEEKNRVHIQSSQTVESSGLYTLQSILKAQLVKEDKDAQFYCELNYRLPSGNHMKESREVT
Briefly: ForteBio BLI, MCAMhFc domains on anti-human IgG Fc biosensors. The source says:
The following protocol was used: ForteBio anti-human IgG Fc biosensors were used to immobilize various MCAMhFc domains including full length MCAMhFc protein on to biosensor surface. […] After loading these samples into a black 96 well plate, the Octet Red was programmed as follows: 60 seconds for baseline #1; 180 seconds for loading various domains; 60 seconds for baseline #2; 180 seconds for association of antibody to domain; and 240 seconds for dissociation of antibody from domain.
1. MCAMhFc final concentration @ 5 ug/ml [0329] […] 3. ForteBio anti-human IgG Fc Capture (AHC) biosensors for kinetics experiments, cat #18-5060 [0331] 4. Block 96 well plate from Greiner Bio-one, cat #655209 [0332] 5. ForteBio Octet Red machine [0333] 6. Fresh tissue culture medium, DMEM with 20% FCS, was used as buffer for dilution The results from these analyses are as follows.
A general note: In BLI a coated tip is dipped into the sample, and binding shifts an interference pattern.

Assay [2] addresses T2, human MCAM C320A mutant (shotgun mutagenesis library, on BHK cells) (human, UniProt P43121 24-646).
T2 chain: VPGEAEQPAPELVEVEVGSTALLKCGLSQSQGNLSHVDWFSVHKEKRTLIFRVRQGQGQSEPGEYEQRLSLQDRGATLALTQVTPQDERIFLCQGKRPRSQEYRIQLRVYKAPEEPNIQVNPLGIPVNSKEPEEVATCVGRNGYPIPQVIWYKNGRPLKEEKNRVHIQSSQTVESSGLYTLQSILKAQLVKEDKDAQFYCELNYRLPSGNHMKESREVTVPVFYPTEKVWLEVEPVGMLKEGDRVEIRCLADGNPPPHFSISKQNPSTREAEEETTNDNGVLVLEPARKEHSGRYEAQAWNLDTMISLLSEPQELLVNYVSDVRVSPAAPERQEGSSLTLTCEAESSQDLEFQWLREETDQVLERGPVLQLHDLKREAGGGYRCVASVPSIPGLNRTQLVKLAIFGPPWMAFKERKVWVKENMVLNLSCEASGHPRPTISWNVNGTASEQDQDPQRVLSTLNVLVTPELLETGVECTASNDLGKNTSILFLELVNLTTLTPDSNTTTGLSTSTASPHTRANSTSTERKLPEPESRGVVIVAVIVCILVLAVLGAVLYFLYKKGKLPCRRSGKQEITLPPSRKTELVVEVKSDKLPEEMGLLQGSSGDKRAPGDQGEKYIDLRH
Briefly: shotgun mutagenesis library, immunofluorescence on BHK cells, 0.5 µg/mL antibody. As for the experimental part: (§1) Secondary antibodies from Jackson ImmunoResearch were used at 1:400 for MAb and sera detection.
(§2) The mutation library was assayed for surface expression (mouse sera binding) and monoclonal antibody binding, in triplicate. Each raw data point was background-subtracted and normalized to the wild type MCAM reactivity values. The mean monoclonal antibody binding value for each clone is plotted as a function of its mean surface expression value (FIG. 1, gray diamonds). Thresholds of <30% monoclonal antibody reactivity and >50% mouse sera binding were applied to identify clones (FIG. 1, black diamonds) that were negative for monoclonal antibody binding but positive for surface expression.

For assay [3], the target named is T3, human MCAM C272A mutant (shotgun mutagenesis library, on BHK cells) (human, UniProt P43121 24-646).
T3 chain: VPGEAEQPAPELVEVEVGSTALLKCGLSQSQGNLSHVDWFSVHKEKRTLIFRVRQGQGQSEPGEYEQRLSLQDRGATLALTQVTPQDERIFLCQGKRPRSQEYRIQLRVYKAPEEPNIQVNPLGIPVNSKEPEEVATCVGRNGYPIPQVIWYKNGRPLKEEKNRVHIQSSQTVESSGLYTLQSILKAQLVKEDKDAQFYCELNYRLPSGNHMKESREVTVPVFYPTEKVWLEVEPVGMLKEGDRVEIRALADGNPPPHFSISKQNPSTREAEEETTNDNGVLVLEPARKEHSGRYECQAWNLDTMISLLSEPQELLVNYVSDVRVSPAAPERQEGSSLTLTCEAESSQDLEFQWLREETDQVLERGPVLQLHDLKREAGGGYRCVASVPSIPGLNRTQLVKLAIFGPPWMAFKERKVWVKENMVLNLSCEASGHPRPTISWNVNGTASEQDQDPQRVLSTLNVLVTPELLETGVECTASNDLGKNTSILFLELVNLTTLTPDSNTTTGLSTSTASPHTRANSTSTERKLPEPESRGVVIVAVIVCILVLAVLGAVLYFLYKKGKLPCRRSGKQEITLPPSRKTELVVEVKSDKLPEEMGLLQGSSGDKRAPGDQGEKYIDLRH
The description is as above. As for the experimental part:
as §1, §2

In assay [4] the target is T4, human MCAM (antigen of the BLI kinetics in Example 7) (human, UniProt P43121 24-559, limits assumed).
T4 chain: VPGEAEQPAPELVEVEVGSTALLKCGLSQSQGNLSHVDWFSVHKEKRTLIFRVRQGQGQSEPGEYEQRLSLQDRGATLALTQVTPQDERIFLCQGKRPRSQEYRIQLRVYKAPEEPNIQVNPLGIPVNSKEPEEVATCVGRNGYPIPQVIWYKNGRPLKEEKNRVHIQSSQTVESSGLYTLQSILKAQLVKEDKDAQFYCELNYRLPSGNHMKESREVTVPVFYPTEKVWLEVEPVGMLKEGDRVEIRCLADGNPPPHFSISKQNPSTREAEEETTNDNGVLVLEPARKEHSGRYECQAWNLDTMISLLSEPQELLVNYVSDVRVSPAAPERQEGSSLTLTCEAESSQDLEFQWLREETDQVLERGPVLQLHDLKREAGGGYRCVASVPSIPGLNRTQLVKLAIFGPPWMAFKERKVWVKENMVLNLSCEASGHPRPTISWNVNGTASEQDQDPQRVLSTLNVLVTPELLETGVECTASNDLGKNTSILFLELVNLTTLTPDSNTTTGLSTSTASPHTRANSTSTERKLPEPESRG
As to the kind of experiment: BLI, ForteBio Octet QK, apparent kd. The source says: Apparent ka, apparent kd and apparent KD are binding kinetic parameters obtained using ForteBio assay formats.

B1: mouse anti-human MCAM monoclonal antibody clone 1749.1.3 (antibody, V domains shown)
VH: DVKLVESGGDLVKPGGSLKLSCAASGFTFSSYIMSWVRQTPEKRLEWVATISSGGSSTYYPDSVKGRFTISRDNAKNTLYLQMSSLKSEDTAMYYCTRDDDYDVKVFAYWGQGTLVTVSA
VL: DIVMSQSPSSLAVSAGEKVTMNCKSSRSLLNSRIRKNYLAWYQQKPGQSPKLLIYWASTRESGVPDRFTGSGSGTDFTLTISSVQAEDLAVYYCKQSYNLLTFGAGTKLELK
notes: Mouse hybridoma monoclonal antibody; also called m1749
What is called koff is the first-order rate constant of dissociation. In the case of B1, the binding result in assay [1] was “no binding (tested: 5 ug/ml)”; in assay [2], “no binding (tested: <30% WT)”; in assay [3] it was “no binding (tested: <30% WT)”. Besides, the koff in assay [4] amounted to 0.000402 s⁻¹.
